In US20120178701A1:
Bridge positions count the residues as written; N and C are the ends. Square brackets hold non-standard residues; d marks the D form. Primed or numbered codes have the meaning given here. * marks the point of attachment. Dap(betaPro) = diaminopropionic acid with a beta-prolyl group on the side-chain amine; Cyclopentylacetyl′ = not defined here; Cyclohexylacetyl = O=C(CC1CCCCC1)*; Orn = NCCC[C@H](N)C(=O)O; Dab = NCC[C@H](N)C(=O)O; Sar = CNCC(=O)O

B1: Ac-Arg-cyclo(Asp-Dab(Acetyl)-D-Phe-Arg-Trp-Lys)-NH2 (peptide)
peptide: RDXFRWK
HELM: PEPTIDE1{[ac].R.D.[Dab].[dF].R.W.K.[am]}|PEPTIDE2{[ac]}$PEPTIDE1,PEPTIDE2,4:R3-1:R2|PEPTIDE1,PEPTIDE1,3:R3-8:R3$$$V2.0
SMILES: CC(=O)NCC[C@@H]1NC(=O)[C@@H](NC(=O)[C@H](CCCNC(=N)N)NC(C)=O)CC(=O)NCCCC[C@@H](C(N)=O)NC(=O)[C@H](Cc2c[nH]c3ccccc23)NC(=O)[C@H](CCCNC(=N)N)NC(=O)[C@@H](Cc2ccccc2)NC1=O
B2: Ac-Arg-cyclo(Asp-Dap-D-Phe-Arg-Trp-Lys)-NH2 (peptide)
peptide: RDXFRWK
HELM: PEPTIDE1{[ac].R.D.[NC[C@H](N[*:1])C(=O)[*:2]].[dF].R.W.K.[am]}$PEPTIDE1,PEPTIDE1,3:R3-8:R3$$$V2.0
SMILES: CC(=O)N[C@@H](CCCNC(=N)N)C(=O)N[C@H]1CC(=O)NCCCC[C@@H](C(N)=O)NC(=O)[C@H](Cc2c[nH]c3ccccc23)NC(=O)[C@H](CCCNC(=N)N)NC(=O)[C@@H](Cc2ccccc2)NC(=O)[C@H](CN)NC1=O
B3: Ac-Arg-cyclo(Asp-Orn-D-Phe-Arg-Trp-Lys)-NH2 (peptide)
peptide: Ac-RD[Orn][dF]RWK-NH2
modifications: lactam 2-7
B4: Ac-Arg-cyclo(Asp-Dab(Glycly)-D-Phe-Arg-Trp-Lys)-NH2 (peptide)
peptide: Ac-RD[Dab](Gly)[dF]RWK-NH2
modifications: lactam 2-7
B5: Ac-Arg-cyclo(Asp-Dap(betaPro)-D-Ph-Arg-Trp-Lys)-NH2 (peptide)
peptide: Ac-RD[Dap(betaPro)][dF]RWK-NH2
modifications: lactam 2-7
B6: Ac-Arg-cyclo(Dab-Dab-D-Phe-Arg-Trp-hGlu)-OH (peptide)
peptide: RXXFRWX
modifications: N-acetyl; X2 = Dab; X3 = Dab; D-Phe 4; X7 = hGlu; side-chain lactam Dab2-hGlu7; C-terminal free acid (-OH)
B7: Ac-Arg-cyclo(hGlu-Dab-D-Phe-Arg-Trp-Dab)-OH (peptide)
peptide: RXXFRWX
modifications: N-acetyl; X2 = hGlu; X3 = Dab; D-Phe 4; X7 = Dab; side-chain lactam hGlu2-Dab7; C-terminal free acid (-OH)
B8: Ac-Arg-cyclo(hGlu-Dab-D-Phe-Arg-Trp-Dab)-NH2 (peptide)
peptide: RXXFRWX
modifications: N-acetyl; X2 = hGlu; X3 = Dab; D-Phe 4; X7 = Dab; side-chain lactam hGlu2-Dab7; C-terminal amide
B9: Ac-Arg-cyclo(Dab-Dab-D-Phe-Arg-Trp-hGlu)-NH2 (peptide)
peptide: RXXFRWX
modifications: N-acetyl; X2 = Dab; X3 = Dab; D-Phe 4; X7 = hGlu; side-chain lactam Dab2-hGlu7; C-terminal amide
B10: Ac-Arg-cyclo(Asp-Sar-D-Phe-Arg-Trp-Lys)-NH2 (peptide)
peptide: Ac-RD[Sar][dF]RWK-NH2
modifications: lactam 2-7
B11: Cyclohexylacetyl-Arg-cyclo(Asp-Dab-D-Phe-Arg-Trp-Lys)-NH2 (peptide)
peptide: Cyclohexylacetyl-RD[Dab][dF]RWK-NH2
modifications: lactam 2-7
B12: Phenylacetyl-Arg-cyclo(Asp-Dab-D-Phe-Arg-Trp-Lys)-NH2 (peptide)
peptide: Phenylacetyl-RD[Dab][dF]RWK-NH2
modifications: lactam 2-7
B13: Ac-Arg-cyclo(Asp-Orn(Acetyl)-D-Phe-Arg-Trp-Lys)-NH2 (peptide)
peptide: Ac-RD[Orn](Ac)[dF]RWK-NH2
modifications: lactam 2-7
B14: Cyclopentylacetyl-Arg-cyclo(Asp-Dab-D-Phe-Arg-Trp-Lys)-NH2 (peptide)
peptide: {Cyclopentylacetyl′}-RD[Dab][dF]RWK-NH2
modifications: lactam 2-7
B15: Cyclohexanoyl-Arg-cyclo(Asp-Dab-D-Phe-Arg-Trp-Lys)-NH2 (peptide)
peptide: Cyclohexanoyl-RD[Dab][dF]RWK-NH2
modifications: lactam 2-7
B16: Ac-Arg-cyclo(Asp-Dab-D-Phe-Arg-Trp-Lys)-NH-cyclopropyl (peptide)
peptide: RDXFRWK
HELM: PEPTIDE1{[ac].R.D.[Dab].[dF].R.W.K.[C1CC1N[*:1]]}$PEPTIDE1,PEPTIDE1,3:R3-8:R3$$$V2.0
SMILES: CC(=O)N[C@@H](CCCNC(=N)N)C(=O)N[C@H]1CC(=O)NCCCC[C@@H](C(=O)NC2CC2)NC(=O)[C@H](Cc2c[nH]c3ccccc23)NC(=O)[C@H](CCCNC(=N)N)NC(=O)[C@@H](Cc2ccccc2)NC(=O)[C@H](CCN)NC1=O

Each binder was assayed against T1, human recombinant melanocortin-4 receptor (human), P32245 (assay: competitive inhibition of Eu-NDP-α-MSH (TRF), hMC4-R HEK-293 membranes). Conditions: remark: other sources report otherwise.
T1 sequence (P32245 whole entry): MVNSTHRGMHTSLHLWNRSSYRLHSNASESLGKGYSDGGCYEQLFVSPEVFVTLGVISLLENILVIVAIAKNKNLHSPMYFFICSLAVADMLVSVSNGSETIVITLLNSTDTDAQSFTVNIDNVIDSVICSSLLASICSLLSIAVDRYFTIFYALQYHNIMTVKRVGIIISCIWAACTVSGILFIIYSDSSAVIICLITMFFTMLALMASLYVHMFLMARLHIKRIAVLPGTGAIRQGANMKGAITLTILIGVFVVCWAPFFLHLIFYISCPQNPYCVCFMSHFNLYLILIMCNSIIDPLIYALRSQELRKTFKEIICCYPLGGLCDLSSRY
For B1, the Ki was 88 nM.
Binder B2 has a Ki of 80 nM.
With B3 the Ki was 7 nM.
In the case of B4, the Ki is reported as 110 nM.
B5 showed a Ki of 145 nM.

The binders below were run against human recombinant melanocortin-4 receptor (human) (UniProt P32245) (assay: competitive inhibition of [I125]-NDP-α-MSH, hMC4-R HEK-293 membranes). Conditions: not given.
human recombinant melanocortin-4 receptor (human), sequence (P32245 whole entry): as above
B6 was tested, and the Ki was 35 nM.
Binder B7 has a Ki of 45 nM.

These binders were tested against human recombinant melanocortin-4 receptor (human) (UniProt P32245) (assay: cell-based or functional assay). Conditions: not given.
In the case of B8, the EC50 (cAMP) is reported as 0.06 nM and the intrinsic activity (cAMP; NDP-α-MSH = 100%) is reported as 98%.
B9 gave an EC50 (cAMP) of 0.065 nM and an intrinsic activity (cAMP; NDP-α-MSH = 100%) of 96%.

These binders were tested against human recombinant melanocortin-4 receptor (human) (UniProt P32245) (assay: competitive inhibition of Eu-NDP-α-MSH (TRF), hMC4-R HEK-293 membranes). Conditions: not given.
B8 showed a Ki of 2 nM.
B9 gave a Ki of 4 nM.

The binders below were run against T1, human recombinant melanocortin-4 … (assay: competitive inhibition of [I125]-NDP-α-MSH, hMC4-R HEK-293 membranes). Conditions: remark: other sources report otherwise.
B1 showed a Ki of 33 nM.
For B10, the Ki was 15 nM.
With B11 the Ki was 1 nM.
B12 was tested, and the Ki was 2 nM.
B13 was tested, and the Ki was 573 nM.
B14 gave a Ki of 0.8 nM.
With B15 the Ki was 0.4 nM.
Work on B16 yielded a Ki of 3 nM.
